Data on two molecules can be found in paper PMC4109839, “Fibrin binds to collagen and provides a bridge for αVβ3 integrin-dependent contraction of collagen gels” (Biochemical Journal, 2014).

For test [1], the target named is T1, PureCol native bovine dermal collagen type I (bovine, UniProt P02453 162-1217; P02465 80-1117).
T1 construct: collagen α1(I) chain, bovine (Bos taurus), from dermis; collagen α2(I) chain, bovine; Native triple helix; Prolines are in part hydroxylated in the tissue protein; also called Col I; native Col I; source: bought: Advanced Biomatrix (PureCol, 3 mg/ml)
Kind of test: ELISA; solid-phase assay: plates coated with 10 μg/ml native or denatured Col I, blocked with 2% BSA; biotinylated fibrinogen in 0.5% BSA in Ca2+- and Mg2+-free PBS pH 7.4, 2 h at 37°C; avidin-alkaline phosphatase. The conditions noted are these: both partners purified.

Test [2] deals with T1, PureCol native bovine dermal collagen …. Kind of test: SPR; Col I (PureCol bovine dermal and mouse-tail tendon) coupled to a BiaCore C1 chip; freshly dissolved, filtered fibrinogen in PBS passed over the chip, then wash-out. The conditions noted are these: both partners purified. On the technique in general: SPR reads the build-up and loss of mass on a sensor chip optically.

T1 sequence (P02453 162-1217, chain 1 of 2): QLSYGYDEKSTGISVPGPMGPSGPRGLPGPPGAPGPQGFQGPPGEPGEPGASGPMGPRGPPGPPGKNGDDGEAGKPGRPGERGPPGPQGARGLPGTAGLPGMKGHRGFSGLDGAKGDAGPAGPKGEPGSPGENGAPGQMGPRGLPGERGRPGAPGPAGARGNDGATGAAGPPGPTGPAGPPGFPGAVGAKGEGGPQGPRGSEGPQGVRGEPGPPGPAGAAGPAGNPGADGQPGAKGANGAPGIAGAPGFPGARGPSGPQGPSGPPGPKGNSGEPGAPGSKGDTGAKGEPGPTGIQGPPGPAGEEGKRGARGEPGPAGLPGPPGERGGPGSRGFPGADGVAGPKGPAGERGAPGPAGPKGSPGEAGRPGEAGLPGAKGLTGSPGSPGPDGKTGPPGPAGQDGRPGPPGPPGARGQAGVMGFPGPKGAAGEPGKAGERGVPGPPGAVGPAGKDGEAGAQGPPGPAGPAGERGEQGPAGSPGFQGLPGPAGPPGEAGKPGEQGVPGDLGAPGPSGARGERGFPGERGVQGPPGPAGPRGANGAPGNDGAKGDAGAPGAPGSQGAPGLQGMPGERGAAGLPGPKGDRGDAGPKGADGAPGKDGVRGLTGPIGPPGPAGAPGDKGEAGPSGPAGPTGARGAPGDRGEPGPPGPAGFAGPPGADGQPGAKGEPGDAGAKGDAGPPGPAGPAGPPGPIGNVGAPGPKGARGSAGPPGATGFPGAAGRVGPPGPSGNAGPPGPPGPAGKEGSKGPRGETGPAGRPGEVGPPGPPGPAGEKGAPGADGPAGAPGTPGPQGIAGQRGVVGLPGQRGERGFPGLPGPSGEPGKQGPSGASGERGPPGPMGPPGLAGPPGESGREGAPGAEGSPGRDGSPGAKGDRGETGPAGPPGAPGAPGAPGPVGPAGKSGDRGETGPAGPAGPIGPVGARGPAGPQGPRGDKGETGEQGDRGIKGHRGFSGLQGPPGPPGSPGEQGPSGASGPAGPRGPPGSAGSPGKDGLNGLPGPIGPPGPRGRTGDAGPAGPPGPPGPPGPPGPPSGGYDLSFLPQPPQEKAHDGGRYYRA
T1 sequence (P02465 80-1117, chain 2 of 2): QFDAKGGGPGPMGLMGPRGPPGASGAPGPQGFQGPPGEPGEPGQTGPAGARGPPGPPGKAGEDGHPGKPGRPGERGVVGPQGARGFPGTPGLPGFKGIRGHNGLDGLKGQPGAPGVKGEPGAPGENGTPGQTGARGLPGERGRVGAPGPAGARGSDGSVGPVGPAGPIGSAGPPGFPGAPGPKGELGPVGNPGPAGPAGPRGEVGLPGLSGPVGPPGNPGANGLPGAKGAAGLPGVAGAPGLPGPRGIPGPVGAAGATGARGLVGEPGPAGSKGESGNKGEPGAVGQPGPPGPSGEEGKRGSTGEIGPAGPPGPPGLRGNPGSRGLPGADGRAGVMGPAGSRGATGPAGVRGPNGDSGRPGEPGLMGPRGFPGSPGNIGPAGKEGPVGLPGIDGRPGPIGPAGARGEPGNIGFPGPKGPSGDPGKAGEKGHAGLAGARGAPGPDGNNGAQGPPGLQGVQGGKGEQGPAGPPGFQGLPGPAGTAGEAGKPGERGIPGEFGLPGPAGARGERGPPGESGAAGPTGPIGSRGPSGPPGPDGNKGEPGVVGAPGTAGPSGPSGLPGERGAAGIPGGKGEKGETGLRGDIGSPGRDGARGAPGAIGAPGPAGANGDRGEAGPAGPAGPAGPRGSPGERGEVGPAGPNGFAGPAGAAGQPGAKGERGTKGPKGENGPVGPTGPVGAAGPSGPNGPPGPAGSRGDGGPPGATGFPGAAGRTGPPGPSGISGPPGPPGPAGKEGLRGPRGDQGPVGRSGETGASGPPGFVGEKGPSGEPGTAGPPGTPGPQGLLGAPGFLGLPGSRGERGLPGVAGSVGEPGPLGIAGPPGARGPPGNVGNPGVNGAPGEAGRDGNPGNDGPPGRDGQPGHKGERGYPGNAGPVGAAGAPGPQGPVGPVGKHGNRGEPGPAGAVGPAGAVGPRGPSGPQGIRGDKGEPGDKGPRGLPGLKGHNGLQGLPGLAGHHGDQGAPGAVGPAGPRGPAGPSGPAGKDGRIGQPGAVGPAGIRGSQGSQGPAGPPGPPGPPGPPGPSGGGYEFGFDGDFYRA

B1: biotinylated human plasma fibrinogen (natural protein)
chain 1: ADSGEGDFLAEGGGVRGPRVVERHQSACKDSDWPFCSDEDWNYKCPSGCRMKGLIDEVNQDFTNRINKLKNSLFEYQKNNKDSHSLTTNIMEILRGDFSSANNRDNTYNRVSEDLRSRIEVLKRKVIEKVQHIQLLQKNVRAQLVDMKRLEVDIDIKIRSCRGSCSRALAREVDLKDYEDQQKQLEQVIAKDLLPSRDRQHLPLIKMKPVPDLVPGNFKSQLQKVPPEWKALTDMPQMRMELERPGGNEITRGGSTSYGTGSETESPRNPSSAGSWNSGSSGPGSTGNRNPGSSGTGGTATWKPGSSGPGSTGSWNSGSSGTGSTGNQNPGSPRPGSTGTWNPGSSERGSAGHWTSESSVSGSTGQWHSESGSFRPDSPGSGNARPNNPDWGTFEEVSGNVSPGTRREYHTEKLVTSKGDKELRTGKEKVTSGSTTTTRRSCSKTVTKTVIGPDGHKEVTKEVVTSEDGSDCPEAMDLGTLSGIGTLDGFRHRHPDEAAFFDTASTGKTFPGFFSPMLGEFVSETESRGSESGIFTNTKESSSHHPGIAEFPSRGKSSSYSKQFTSSTSYNRGDSTFESKSYKMADEAGSEADHEGTHSTKRGHAKSRPV
chain 2: QGVNDNEEGFFSARGHRPLDKKREEAPSLRPAPPPISGGGYRARPAKAAATQKKVERKAPDAGGCLHADPDLGVLCPTGCQLQEALLQQERPIRNSVDELNNNVEAVSQTSSSSFQYMYLLKDLWQKRQKQVKDNENVVNEYSSELEKHQLYIDETVNSNIPTNLRVLRSILENLRSKIQKLESDVSAQMEYCRTPCTVSCNIPVVSGKECEEIIRKGGETSEMYLIQPDSSVKPYRVYCDMNTENGGWTVIQNRQDGSVDFGRKWDPYKQGFGNVATNTDGKNYCGLPGEYWLGNDKISQLTRMGPTELLIEMEDWKGDKVKAHYGGFTVQNEANKYQISVNKYRGTAGNALMDGASQLMGENRTMTIHNGMFFSTYDRDNDGWLTSDPRKQCSKEDGGGWWYNRCHAANPNGRYYWGGQYTWDMAKHGTDDGVVWMNWKGSWYSMRKMSMKIRPFFPQQ
chain 3: YVATRDNCCILDERFGSYCPTTCGIADFLSTYQTKVDKDLQSLEDILHQVENKTSEVKQLIKAIQLTYNPDESSKPNMIDAATLKSRKMLEEIMKYEASILTHDSSIRYLQEIYNSNNQKIVNLKEKVAQLEAQCQEPCKDTVQIHDITGKDCQDIANKGAKQSGLYFIKPLKANQQFLVYCEIDGSGNGWTVFQKRLDGSVDFKKNWIQYKEGFGHLSPTGTTEFWLGNEKIHLISTQSAIPYALRVELEDWNGRTSTADYAMFKVGPEADKYRLTYAYFAGGDAGDAFDGFDFGDDPSDKFFTSHNGMQFSTWDNDNDKFEGNCAEQDGSGWWMNKCHAGHLNGVYYQGGTYSKASTPNGYDNGIIWATWKTRWYSMKKTTMKIIPFNRLTIGEGQQHHLGGAKQAGDV
modifications: biotin (biotin N-hydroxysuccinimide ester; which chains and residues not stated) | biotin (biotin N-hydroxysuccinimide ester; which chains and residues not stated) | biotin (biotin N-hydroxysuccinimide ester; which chains and residues not stated)
As for B1, in test [1], the EC50 (usually the concentration at which the effect is half-maximal) was roughly 70 nM.

B2: human plasma fibrinogen (natural protein)
chain 1: ADSGEGDFLAEGGGVRGPRVVERHQSACKDSDWPFCSDEDWNYKCPSGCRMKGLIDEVNQDFTNRINKLKNSLFEYQKNNKDSHSLTTNIMEILRGDFSSANNRDNTYNRVSEDLRSRIEVLKRKVIEKVQHIQLLQKNVRAQLVDMKRLEVDIDIKIRSCRGSCSRALAREVDLKDYEDQQKQLEQVIAKDLLPSRDRQHLPLIKMKPVPDLVPGNFKSQLQKVPPEWKALTDMPQMRMELERPGGNEITRGGSTSYGTGSETESPRNPSSAGSWNSGSSGPGSTGNRNPGSSGTGGTATWKPGSSGPGSTGSWNSGSSGTGSTGNQNPGSPRPGSTGTWNPGSSERGSAGHWTSESSVSGSTGQWHSESGSFRPDSPGSGNARPNNPDWGTFEEVSGNVSPGTRREYHTEKLVTSKGDKELRTGKEKVTSGSTTTTRRSCSKTVTKTVIGPDGHKEVTKEVVTSEDGSDCPEAMDLGTLSGIGTLDGFRHRHPDEAAFFDTASTGKTFPGFFSPMLGEFVSETESRGSESGIFTNTKESSSHHPGIAEFPSRGKSSSYSKQFTSSTSYNRGDSTFESKSYKMADEAGSEADHEGTHSTKRGHAKSRPVRGIHTSPLGKPSLSP
chain 2: QGVNDNEEGFFSARGHRPLDKKREEAPSLRPAPPPISGGGYRARPAKAAATQKKVERKAPDAGGCLHADPDLGVLCPTGCQLQEALLQQERPIRNSVDELNNNVEAVSQTSSSSFQYMYLLKDLWQKRQKQVKDNENVVNEYSSELEKHQLYIDETVNSNIPTNLRVLRSILENLRSKIQKLESDVSAQMEYCRTPCTVSCNIPVVSGKECEEIIRKGGETSEMYLIQPDSSVKPYRVYCDMNTENGGWTVIQNRQDGSVDFGRKWDPYKQGFGNVATNTDGKNYCGLPGEYWLGNDKISQLTRMGPTELLIEMEDWKGDKVKAHYGGFTVQNEANKYQISVNKYRGTAGNALMDGASQLMGENRTMTIHNGMFFSTYDRDNDGWLTSDPRKQCSKEDGGGWWYNRCHAANPNGRYYWGGQYTWDMAKHGTDDGVVWMNWKGSWYSMRKMSMKIRPFFPQQ
chain 3: YVATRDNCCILDERFGSYCPTTCGIADFLSTYQTKVDKDLQSLEDILHQVENKTSEVKQLIKAIQLTYNPDESSKPNMIDAATLKSRKMLEEIMKYEASILTHDSSIRYLQEIYNSNNQKIVNLKEKVAQLEAQCQEPCKDTVQIHDITGKDCQDIANKGAKQSGLYFIKPLKANQQFLVYCEIDGSGNGWTVFQKRLDGSVDFKKNWIQYKEGFGHLSPTGTTEFWLGNEKIHLISTQSAIPYALRVELEDWNGRTSTADYAMFKVGPEADKYRLTYAYFAGGDAGDAFDGFDFGDDPSDKFFTSHNGMQFSTWDNDNDKFEGNCAEQDGSGWWMNKCHAGHLNGVYYQGGTYSKASTPNGYDNGIIWATWKTRWYSMKKTTMKIIPFNRLTIGEGQQHHLGGAKQAGDV
notes: fibrinogen Aα-chain, human, from plasma; fibrinogen Bβ-chain, human, from plasma; fibrinogen γ-chain, human, from plasma; In the gel contraction assays it was converted into fibrin by thrombin; also called unlabelled fibrinogen; non-biotinylated fibrinogen; source: bought: Sigma-Aldrich; copies: 2 + 2 + 2
B2: the EC50 in test [2] was roughly 10 nM.
